The target in experiment [1] is leptin receptor (ObR) naturally expressed on MCF-7 and DU-45 cells (human) (UniProt P48357). The experiment is described as follows: cell-based or functional assay.
Experiment [2] has as its target T1, leptin receptor (ObR) naturally expressed on MCF-7 and DU-45 cells (human, UniProt P48357 22-1165).
T1 sequence (looked up): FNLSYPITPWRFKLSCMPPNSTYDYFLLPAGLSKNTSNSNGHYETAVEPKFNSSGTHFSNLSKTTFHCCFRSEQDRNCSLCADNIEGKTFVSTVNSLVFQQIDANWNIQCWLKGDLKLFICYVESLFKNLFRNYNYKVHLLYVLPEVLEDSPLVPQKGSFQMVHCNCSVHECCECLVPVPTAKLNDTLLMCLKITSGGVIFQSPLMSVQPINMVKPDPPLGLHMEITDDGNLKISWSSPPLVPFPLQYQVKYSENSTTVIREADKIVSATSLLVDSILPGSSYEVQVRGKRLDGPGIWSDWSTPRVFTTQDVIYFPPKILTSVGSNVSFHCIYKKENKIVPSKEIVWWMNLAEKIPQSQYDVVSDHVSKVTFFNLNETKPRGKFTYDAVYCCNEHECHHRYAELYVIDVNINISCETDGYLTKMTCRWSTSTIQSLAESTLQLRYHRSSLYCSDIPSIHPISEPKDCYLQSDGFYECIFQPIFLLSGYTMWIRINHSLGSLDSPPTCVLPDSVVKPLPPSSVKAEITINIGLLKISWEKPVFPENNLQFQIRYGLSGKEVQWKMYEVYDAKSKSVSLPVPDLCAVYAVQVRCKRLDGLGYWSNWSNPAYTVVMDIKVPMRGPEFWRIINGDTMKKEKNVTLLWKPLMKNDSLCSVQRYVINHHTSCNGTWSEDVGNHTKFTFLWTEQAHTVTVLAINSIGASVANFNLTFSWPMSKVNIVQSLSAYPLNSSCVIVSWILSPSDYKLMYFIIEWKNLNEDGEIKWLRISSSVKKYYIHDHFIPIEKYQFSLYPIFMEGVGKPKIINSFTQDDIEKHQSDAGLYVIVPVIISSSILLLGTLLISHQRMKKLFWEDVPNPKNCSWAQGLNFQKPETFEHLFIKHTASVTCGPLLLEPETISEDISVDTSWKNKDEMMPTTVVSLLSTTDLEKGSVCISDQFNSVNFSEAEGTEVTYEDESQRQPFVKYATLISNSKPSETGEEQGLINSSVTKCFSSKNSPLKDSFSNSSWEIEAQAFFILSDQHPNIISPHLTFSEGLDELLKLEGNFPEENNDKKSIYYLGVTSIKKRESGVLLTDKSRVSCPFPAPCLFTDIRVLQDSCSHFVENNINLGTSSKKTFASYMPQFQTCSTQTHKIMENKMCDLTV
The experiment is described as follows: cell-based or functional assay.

The target of experiment [3] is T1, leptin receptor (ObR) naturally …. The experiment is described as follows: cell-based or functional assay. This is another data set of the same source.
The target in experiment [4] is T2, human IgG Fc-conjugated ObR extracellular domain (R&D Systems) (human, UniProt P48357 22-839).
T2 construct: extracellular domain; it was detected with an antibody specific for the N-terminus of human ObR; also called ObR extracellular fragment-human Fc chimera; extracellular domain of ObR; not shown: human IgG Fc
T2 sequence (looked up): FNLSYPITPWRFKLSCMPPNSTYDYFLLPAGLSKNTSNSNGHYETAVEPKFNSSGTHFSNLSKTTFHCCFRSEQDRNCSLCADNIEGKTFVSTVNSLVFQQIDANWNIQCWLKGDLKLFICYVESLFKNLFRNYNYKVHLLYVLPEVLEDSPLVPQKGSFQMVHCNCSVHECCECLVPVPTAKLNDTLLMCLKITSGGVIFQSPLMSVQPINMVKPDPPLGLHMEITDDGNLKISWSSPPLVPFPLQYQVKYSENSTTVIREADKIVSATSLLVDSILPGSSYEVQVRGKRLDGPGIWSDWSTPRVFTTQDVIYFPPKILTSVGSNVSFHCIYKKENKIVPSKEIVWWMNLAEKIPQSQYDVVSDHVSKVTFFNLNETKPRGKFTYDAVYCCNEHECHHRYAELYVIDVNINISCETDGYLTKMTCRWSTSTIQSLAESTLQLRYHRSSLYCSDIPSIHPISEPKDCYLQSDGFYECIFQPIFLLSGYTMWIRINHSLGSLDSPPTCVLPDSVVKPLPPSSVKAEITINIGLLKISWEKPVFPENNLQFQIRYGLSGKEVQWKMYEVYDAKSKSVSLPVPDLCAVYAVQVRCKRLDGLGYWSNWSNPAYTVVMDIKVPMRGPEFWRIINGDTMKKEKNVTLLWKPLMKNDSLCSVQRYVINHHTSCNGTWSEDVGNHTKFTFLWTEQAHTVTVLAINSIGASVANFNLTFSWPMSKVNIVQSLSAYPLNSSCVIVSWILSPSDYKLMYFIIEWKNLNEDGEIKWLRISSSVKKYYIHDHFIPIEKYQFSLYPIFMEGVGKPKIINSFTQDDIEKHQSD
The experiment is described as follows: ELISA-type solid-phase binding assay, peptide on plate, ObR-Fc in solution. On the procedure:
For dot-blot and ELISA assays, the leptin fragments were dissolved in electroblot transfer buffer (25 mM Tris and […] buffer containing 20% methanol) and were applied to either a nitrocellulose membrane or dried upon ELISA plates (Otvos, L., Jr., and Szendrei, G. I. (1996) Enzyme-linked immunosorbent assay of peptides. In: Neuropeptide Protocols (G. B. Irvine and C. H. Williams, eds.). Humana Press, Totowa, N.J., pp. 269-275). The solid surfaces were blocked with 5% BSA in a PBS-0.5% Tween 20 buffer (PBST) for 3 hours at room temperature and were subsequently incubated with 10 μg/mL solution of human IgG Fc-conjugated ObR extracellular domain (R&D Systems) dissolved in Tris-buffered saline-0.1% Tween 20 buffer (TBST) containing 1% bovine serum albumin (BSA) for 1 hour. A monoclonal goat antibody (Santa Cruz Biotechnology), specific for the N-terminus of human ObR, was added to the assay mixture, followed by addition of a horseradish peroxidase(HRP)-conjugated anti-goat IgG donkey antibody for the dot-blot assay, and HRP-conjugated anti-goat Fc mouse antibody for ELISA assay (used at a 1:15,000 dilution in PBST and 1% BSA). Between reagents, the solid surfaces were washed extensively with PBST. After washing with PBST, the membrane was treated with a chemiluminescence luminol oxidizer (NEN) for 1 min. […] Optical absorbance values were read at 490 nm using a microplate reader. […]
In general terms: ELISA stands for enzyme-linked immunosorbent assay.

Starred links: 1 amine or outer side, 2 acyl side, 3 side chain; linkers in the order of their positions; H or OH if unused. Non-standard residues stand in square brackets, D forms with d. Primed or numbered codes have the meaning given here. No end group written: not given here. Tyr(Me)″ = methylated tyrosine, COc1ccc(C[C@H](N[*:1])C(=O)[*:2])cc1; Tyr(3,5-I2) = N[C@@H](Cc1cc(I)c(O)c(I)c1)C(=O)O; dGla = N[C@H](CC(C(=O)O)C(=O)O)C(=O)O; Dap = NC[C@H](N)C(=O)O; βAla = NCCC(=O)O

“human leptin (R&D Systems) (from UniProt P41159 22-167)” had an MCF-7 cell growth (cell count, 5 days) in experiment [1] of 40%.

B1: F2 peptide (peptide)
peptide: G[Tyr(3,5-I2)]ST[dGla]VV[dA]LSRL-NH2
modifications: N-terminus assumed
SMILES: CC(C)C[C@H](NC(=O)[C@H](CCCNC(=N)N)NC(=O)[C@H](CO)NC(=O)[C@H](CC(C)C)NC(=O)[C@@H](C)NC(=O)[C@@H](NC(=O)[C@@H](NC(=O)[C@@H](CC(C(=O)O)C(=O)O)NC(=O)[C@@H](NC(=O)[C@H](CO)NC(=O)[C@H](Cc1cc(I)c(O)c(I)c1)NC(=O)CN)[C@@H](C)O)C(C)C)C(C)C)C(N)=O
Consider B1, for which the “Relative stimulation (%) of MCF-7 cells, with 10 nM leptin” value (“Relative stimulation (%) of MCF-7 cells” below) in experiment [2] was -15%.

B2: A4 peptide (peptide)
peptide: G[Tyr(3,5-I2)]STEVV[βAla]LSRL-NH2
modifications: N-terminus assumed
SMILES: CC(C)C[C@H](NC(=O)[C@H](CCCNC(=N)N)NC(=O)[C@H](CO)NC(=O)[C@H](CC(C)C)NC(=O)CCNC(=O)[C@@H](NC(=O)[C@@H](NC(=O)[C@H](CCC(=O)O)NC(=O)[C@@H](NC(=O)[C@H](CO)NC(=O)[C@H](Cc1cc(I)c(O)c(I)c1)NC(=O)CN)[C@@H](C)O)C(C)C)C(C)C)C(N)=O
Regarding B2, in experiment [2], the “Relative stimulation (%) of MCF-7 cells” value was -10%.

B3: D12 peptide (peptide)
peptide: [Tyr(Me)″]ST[dGla]VV[dA]LSRL-NH2
modifications: N-terminus assumed
SMILES: COc1ccc(C[C@H](N)C(=O)N[C@@H](CO)C(=O)N[C@H](C(=O)N[C@H](CC(C(=O)O)C(=O)O)C(=O)N[C@H](C(=O)N[C@H](C(=O)N[C@H](C)C(=O)N[C@@H](CC(C)C)C(=O)N[C@@H](CO)C(=O)N[C@@H](CCCNC(=N)N)C(=O)N[C@@H](CC(C)C)C(N)=O)C(C)C)C(C)C)[C@@H](C)O)cc1
With B3, the “Relative stimulation (%) of MCF-7 cells” value in experiment [2] is -43%.

B4: A11 peptide (peptide)
peptide: [Tyr(Me)″]STEVV[βAla]LSRL-NH2
modifications: N-terminus assumed
SMILES: COc1ccc(C[C@H](N)C(=O)N[C@@H](CO)C(=O)N[C@H](C(=O)N[C@@H](CCC(=O)O)C(=O)N[C@H](C(=O)N[C@H](C(=O)NCCC(=O)N[C@@H](CC(C)C)C(=O)N[C@@H](CO)C(=O)N[C@@H](CCCNC(=N)N)C(=O)N[C@@H](CC(C)C)C(N)=O)C(C)C)C(C)C)[C@@H](C)O)cc1
Consider B4, for which the “Relative stimulation (%) of MCF-7 cells” value in experiment [2] was -3%.

On to [Tyr(3,5-I2)]S(β‑D‑glucose)TEVVALSRL[Dap](Ac)-NH2 [E1Free glycopeptide], for which, in experiment [3], the “EC50 estimated from ERK1/2 stimulation in MCF-7 cells” value was 100 to 150 nM.

B5: pyrrhocoricin (peptide, UniProt P37362 1-20, looked up)
peptide: VDKGSYLPRPTPPRPIYNRN
notes: Negative control peptide; also called negative control antibacterial peptide pyrrhocoricin
Regarding B5, the binding result in experiment [4] is “no binding”.

(Values after patent publication US20110015124A1 (TEMPLE UNIVERSITY OF THE COMMOMWEALTH SYSTEM OF HIGHER …, published 2011).)
